Tests used:
Experiment in all cases: cell-based or functional assay
human GLP-1 receptor [1] = biological target: T1, human GLP-1 receptor (human, UniProt P43220 24-463)
FGF receptor/BKL complex = FGF receptor/BKL complex (human, UniProt Q86Z14 1-1044)
human GLP-1 receptor [2] = biological target: T1, human GLP-1 receptor; remark: listed apart in the source

Chain of FGF receptor/BKL complex (Q86Z14 whole entry, one chain of several): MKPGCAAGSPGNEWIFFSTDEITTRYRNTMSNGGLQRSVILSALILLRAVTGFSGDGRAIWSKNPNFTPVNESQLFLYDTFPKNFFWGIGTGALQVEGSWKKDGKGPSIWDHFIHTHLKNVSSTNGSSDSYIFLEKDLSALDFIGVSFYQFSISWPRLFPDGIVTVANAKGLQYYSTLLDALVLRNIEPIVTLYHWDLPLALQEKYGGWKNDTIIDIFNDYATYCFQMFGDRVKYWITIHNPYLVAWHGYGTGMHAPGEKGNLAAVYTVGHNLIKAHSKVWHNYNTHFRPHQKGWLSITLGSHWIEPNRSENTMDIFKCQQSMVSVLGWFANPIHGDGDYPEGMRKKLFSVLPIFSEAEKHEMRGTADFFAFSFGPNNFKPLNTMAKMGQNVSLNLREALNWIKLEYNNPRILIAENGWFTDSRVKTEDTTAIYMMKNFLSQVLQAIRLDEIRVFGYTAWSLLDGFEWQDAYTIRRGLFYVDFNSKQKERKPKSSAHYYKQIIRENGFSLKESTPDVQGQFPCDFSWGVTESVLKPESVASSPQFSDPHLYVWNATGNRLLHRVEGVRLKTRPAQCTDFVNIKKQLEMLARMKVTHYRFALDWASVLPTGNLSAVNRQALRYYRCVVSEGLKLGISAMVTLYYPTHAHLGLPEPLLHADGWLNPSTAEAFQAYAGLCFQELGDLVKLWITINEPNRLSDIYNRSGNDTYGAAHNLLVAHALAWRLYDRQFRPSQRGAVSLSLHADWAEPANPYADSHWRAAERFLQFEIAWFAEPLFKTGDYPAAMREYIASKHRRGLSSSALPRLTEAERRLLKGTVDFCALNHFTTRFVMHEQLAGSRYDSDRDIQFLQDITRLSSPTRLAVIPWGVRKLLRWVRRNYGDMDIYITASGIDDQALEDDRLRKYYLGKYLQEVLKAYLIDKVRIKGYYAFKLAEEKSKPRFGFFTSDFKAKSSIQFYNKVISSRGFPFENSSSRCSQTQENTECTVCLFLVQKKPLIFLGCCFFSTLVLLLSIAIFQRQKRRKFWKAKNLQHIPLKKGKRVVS

| Binder | GLP-1 receptor potency [EC50] pM 0% HSA (human GLP-1 receptor [1]) | GLP-1 receptor potency [EC50] pM 1% HSA (human GLP-1 receptor [1]) | FGF1 receptor potency [EC50] nM 0.1% HSA (FGF receptor/BKL complex) | FGF21 receptor potency [EC50] nM 0% HSA (FGF receptor/BKL complex) | GLP-1R potency loss against Chem. 24, absence of HSA (human GLP-1 receptor [2]) | GLP-1R potency loss against Chem. 24, presence of HSA (human GLP-1 receptor [2]) |
| --- | --- | --- | --- | --- | --- | --- |
| S{Beta-36}-[2-[2-[[2-[2-[2-[[2-[2-[2-[[(4S)-4-carboxy-4-(17-carboxyheptadecanoyl-amino)butanoyl]amino]ethoxy]ethoxy]acetyl]amino]ethoxy]ethoxy]acetyl]amino]-eth … (ligand, Cys36 of the GLP-1 part (GLP-1(7-37) numbering; residue 30 of the chain) S-alkylated with substituent Chem. 7) HGEGTFTSDVSSYLEEQAAREFIAWLVKGCGGAQPGAQPGAQPGAQPAHPIPDSSPLLQFGGQVRQRYLYTDDAQQTEAHLEIREDGTVGGAADQSPESLLQLKALKPGVIQILGVKTSRFLCQRPDGALYGSLHFDPEACSFRELLLEDGYNVYQSEAHGLPLHLPGQKSPHRDPAPRGPARFLPLPGLPPALPEPPGILAPQPPDVGSSDPLSLVGGSQGRSPSYES | 54.6 pM | 394 pM | 0.73 nM | 0.41 nM |  |  |
| S{Beta-27}-[2-[2-[[2-[2-[2-[[2-[2-[2-[[(4S)-4-carboxy-4-(17-carboxyheptadecanoyl-amino)butanoyl]amino]ethoxy]ethoxy]acetyl]amino]ethoxy]ethoxy]acetyl]amino]-eth … (ligand, Cys27 of the GLP-1 part (GLP-1(7-37) numbering; residue 21 of the chain) S-alkylated with substituent Chem. 7) HGEGTFTSDVSSYLEEQAAKCFIAWLVKGGGGAQPGAQPGAQPGAQPAHPIPDSSPLLQFGGQVRQRYLYTDDAQQTEAHLEIREDGTVGGAADQSPESLLQLKALKPGVIQILGVKTSRFLCQRPDGALYGSLHFDPEACSFRELLLEDGYNVYQSEAHGLPLHLPGQKSPHRDPAPRGPARFLPLPGLPPALPEPPGILAPQPPDVGSSDPLSLVGGSQGRSPSYAS | 16.9 pM | 75.4 pM | 0.38 nM | 0.13 nM |  |  |
| S{Beta-27}-[2-[2-[[2-[2-[2-[[2-[2-[2-[[(4S)-4-carboxy-4-(17-carboxyheptadecanoyl-amino)butanoyl]amino]ethoxy]ethoxy]acetyl]amino]ethoxy]ethoxy]acetyl]amino]-eth … (ligand, Cys27 of the GLP-1 part (GLP-1(7-37) numbering; residue 21 of the chain) and Cys180 of the FGF21 part (FGF21(1-181) numbering; residue 228 of the chain) each S-alkylated with substituent Chem. 7) HGEGTFTSDVSSYLEEQAAKCFIAWLVKGGGGAQPGAQPGAQPGAQPAHPIPDSSPLLQFGGQVRQRYLYTDDAQQTEAHLEIREDGTVGGAADQSPESLLQLKALKPGVIQILGVKTSRFLCQRPDGALYGSLHFDPEACSFRELLLEDGYNVYQSEAHGLPLHLPGQKSPHRDPAPRGPARFLPLPGLPPALPEPPGILAPQPPDVGSSDPLSLVGPSQGRSPSYCS | 18 pM | 391 pM | 7.57 nM | 0.2 nM |  |  |
| S{Beta-27}-[2-[2-[[2-[2-[2-[[2-[2-[2-[[(4S)-4-carboxy-4-(17-carboxyheptadecanoyl-amino)butanoyl]amino]ethoxy]ethoxy]acetyl]amino]ethoxy]ethoxy]acetyl]amino]-eth … (ligand, Cys27 of the GLP-1 part (GLP-1(7-37) numbering; residue 21 of the chain) and Cys180 of the FGF21 part (FGF21(1-181) numbering; residue 228 of the chain) each S-alkylated with substituent Chem. 7) HGEGTFTSDVSSYLEEQAARCFIAWLVKGGGGAQPGAQPGAQPGAQPAHPIPDSSPLLQFGGQVRQRYLYTDDAQQTEAHLEIREDGTVGGAADQSPESLLQLKALKPGVIQILGVKTSRFLCQRPDGALYGSLHFDPEACSFRELLLEDGYNVYQSEAHGLPLHLPGQKSPHRDPAPRGPARFLPLPGLPPALPEPPGILAPQPPDVGSSDPLSLVGPSQGRSPSYCS | 11.4 pM | 389 pM | 8 nM | 1.2 nM |  |  |
| S{Beta-26}-[2-[2-[[2-[2-[2-[[2-[2-[2-[[(4S)-4-carboxy-4-(17-carboxyheptadecanoyl-amino)butanoyl]amino]ethoxy]ethoxy]acetyl]amino]ethoxy]ethoxy]acetyl]amino]-eth … (ligand, Cys26 of the GLP-1 part (GLP-1(7-37) numbering; residue 20 of the chain) and Cys180 of the FGF21 part (FGF21(1-181) numbering; residue 228 of the chain) each S-alkylated with substituent Chem. 7) HGEGTFTSDVSSYLEEQAACEFIAWLVKGGGGAQPGAQPGAQPGAQPAHPIPDSSPLLQFGGQVRQRYLYTDDAQQTEAHLEIREDGTVGGAADQSPESLLQLKALKPGVIQILGVKTSRFLCQRPDGALYGSLHFDPEACSFRELLLEDGYNVYQSEAHGLPLHLPGQKSPHRDPAPRGPARFLPLPGLPPALPEPPGILAPQPPDVGSSDPLSLVGPSQGRSPSYCS | 224 pM | 4410 pM | 8.97 nM | 0.24 nM | 40 fold | 26 fold |
| S{Beta-27}-[2-[2-[[2-[2-[2-[[2-[2-[2-[[(4S)-4-carboxy-4-(17-carboxyheptadecanoyl-amino)butanoyl]amino]ethoxy]ethoxy]acetyl]amino]ethoxy]ethoxy]acetyl]amino]-eth … (ligand, Cys27 of the GLP-1 part (GLP-1(7-37) numbering; residue 21 of the chain) S-alkylated with substituent Chem. 7) HGEGTFTSDVSSYLEEQAARCFIAWLVKGGGGAQPGAQPGAQPGAQPAHPIPDSSPLLQFGGQVRQRYLYTDDAQQTEAHLEIREDGTVGGAADQSPESLLQLKALKPGVIQILGVKTSRFLCQRPDGALYGSLHFDPEACSFRELLLEDGYNVYQSEAHGLPLHLPGQKSPHRDPAPRGPARFLPLPGLPPALPEPPGILAPQPPDVGSSDPLSLVGGSQGRSPSYES | 17.2 pM | 104 pM | 0.43 nM | 0.17 nM |  |  |
| S{Beta-27}-[2-[2-[[2-[2-[2-[[2-[2-[2-[[(4S)-4-carboxy-4-(17-carboxyheptadecanoyl-amino)butanoyl]amino]ethoxy]ethoxy]acetyl]amino]ethoxy]ethoxy]acetyl]amino]-eth … (ligand, Cys27 of the GLP-1 part (GLP-1(7-37) numbering; residue 21 of the chain) S-alkylated with substituent Chem. 7) HGEGTFTSDVSSYLEEQAAKCFIAWLVKGGGGAQPGAQPGAQPGAQPAHPIPDSSPLLQFGGQVRQRYLYTDDAQQTEAHLEIREDGTVGGAADQSPESLLQLKALKPGVIQILGVKTSRFLCQRPDGALYGSLHFDPEACSFRELLLEDGYNVYQSEAHGLPLHLPGQKSPHRDPAPRGPARFLPLPGLPPALPEPPGILAPQPPDVGSSDPLSLVGGSQGRSPSYES | 13.8 pM | 78.7 pM | 0.64 nM | 0.45 nM |  |  |
| S{Beta-26}-[2-[2-[[2-[2-[2-[[2-[2-[2-[[(4S)-4-carboxy-4-(17-carboxyheptadecanoyl-amino)butanoyl]amino]ethoxy]ethoxy]acetyl]amino]ethoxy]ethoxy]acetyl]amino]-eth … (ligand, Cys26 of the GLP-1 part (GLP-1(7-37) numbering; residue 20 of the chain) S-alkylated with substituent Chem. 7) HGEGTFTSDVSSYLEEQAACEFIAWLVKGGGGAQPGAQPGAQPGAQPAHPIPDSSPLLQFGGQVRQRYLYTDDAQQTEAHLEIREDGTVGGAADQSPESLLQLKALKPGVIQILGVKTSRFLCQRPDGALYGSLHFDPEACSFRELLLEDGYNVYQSEAHGLPLHLPGQKSPHRDPAPRGPARFLPLPGLPPALPEPPGILAPQPPDVGSSDPLSLVGGSQGRSPSYAS | 67.4 pM | 397 pM | 0.51 nM | 0.43 nM | > 10 fold |  |

Source: patent publication US20240400635A1 (Novo Nordisk, published 2024)
